# Reference: the RNAGym collection of RNA variant scans (doi:10.1093/molbev/msab373)
# B1: Azoarcus group I ribozyme (parent)
# chain: GUGCCUUGCGCCGGGAAACCACGCAAGGGAUGGUGUCAAAUUCGGCGAAACCUAAGCGCCCGCCCGGGCGUAUGGCAACGCCGAGCCAAGCUUCGGCGCCUGCGCCGAUGAAGGUGUAGAGACUAGACGGCACCCACCUAAGGCAAACGCUAUGGUGAAGGCAUAGUCCAGGGAGUGGCGAAAGUCACACAAACCGG
# Variants of: B1
# Experiment: reverse-splicing fitness (ratio to wild type); higher = more active; in vitro selection; Mg2+ level not given
# Outline: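 An in vitro group I ribozyme library with randomized positions was T7-transcribed and gel-purified. In triplicate, 10 pmol RNA in EPPS pH 7.5 was reacted with 50 pmoles of a 30-nt RNA substrate for 1 h at 37 °C across several added MgCl2 levels (1–48 mM), then stopped with EDTA. Products were reverse transcribed from a substrate-complementary primer, PCR-amplified and sequenced (HiSeq 4000). Fitness is a variant's read proportion after selection over that before, normalised to wild type.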
row,Variant,reverse-splicing fitness
1,C82A,0.658
2,C82A A111C,0.228
3,C82A A111C A120C,0.0246
4,C82A A111C A120C A145C,0.0248
5,C82A A111C A120C A145C C150A,0.0107
6,C82A A111C A120C A145C C150A C169A,0.00755
7,C82A A111C A120C A145C C150A C169A U176A,0.0167
8,C82A A111C A120C A145C C150A C169A U176C,0.00935
9,C82A A111C A120C A145C C150A C169A U176G,0.00733
10,C82A A111C A120C A145C C150A C169G,0.00813
11,C82A A111C A120C A145C C150A C169G U176A,0.0296
12,C82A A111C A120C A145C C150A C169G U176C,0.024
13,C82A A111C A120C A145C C150A C169G U176G,0.00757
14,C82A A111C A120C A145C C150A C169U,0.0105
15,C82A A111C A120C A145C C150A C169U U176A,0.0165
16,C82A A111C A120C A145C C150A C169U U176C,0.0127
17,C82A A111C A120C A145C C150A C169U U176G,0.00786
18,C82A A111C A120C A145C C150A U176A,0.0106
19,C82A A111C A120C A145C C150A U176C,0.011
20,C82A A111C A120C A145C C150A U176G,0.00581
21,C82A A111C A120C A145C C150G,0.00873

row,Variant,reverse-splicing fitness
1,C82A A111C A120C A145C C150G C169A,0.00854
2,C82A A111C A120C A145C C150G C169A U176A,0.00949
3,C82A A111C A120C A145C C150G C169A U176C,0.00798
4,C82A A111C A120C A145C C150G C169A U176G,0.00767
5,C82A A111C A120C A145C C150G C169G,0.00631
6,C82A A111C A120C A145C C150G C169G U176A,0.00867
7,C82A A111C A120C A145C C150G C169G U176C,0.0101
8,C82A A111C A120C A145C C150G C169G U176G,0.00702
9,C82A A111C A120C A145C C150G C169U,0.00879
10,C82A A111C A120C A145C C150G C169U U176A,0.00758
11,C82A A111C A120C A145C C150G C169U U176C,0.0112
12,C82A A111C A120C A145C C150G C169U U176G,0.00564
13,C82A A111C A120C A145C C150G U176A,0.00409
14,C82A A111C A120C A145C C150G U176C,0.00754
15,C82A A111C A120C A145C C150G U176G,0.0029
16,C82A A111C A120C A145C C150U,0.0124
17,C82A A111C A120C A145C C150U C169A,0.0105
18,C82A A111C A120C A145C C150U C169A U176A,0.0145
19,C82A A111C A120C A145C C150U C169A U176C,0.0112
20,C82A A111C A120C A145C C150U C169A U176G,0.00751
21,C82A A111C A120C A145C C150U C169G,0.00741

row,Variant,reverse-splicing fitness
1,C82A A111C A120C A145C C150U C169G U176A,0.0269
2,C82A A111C A120C A145C C150U C169G U176C,0.0178
3,C82A A111C A120C A145C C150U C169G U176G,0.00659
4,C82A A111C A120C A145C C150U C169U,0.0108
5,C82A A111C A120C A145C C150U C169U U176A,0.0135
6,C82A A111C A120C A145C C150U C169U U176C,0.0105
7,C82A A111C A120C A145C C150U C169U U176G,0.00738
8,C82A A111C A120C A145C C150U U176A,0.00941
9,C82A A111C A120C A145C C150U U176C,0.0125
10,C82A A111C A120C A145C C150U U176G,0.00571
11,C82A A111C A120C A145C C169A,0.00691
12,C82A A111C A120C A145C C169A U176A,0.0158
13,C82A A111C A120C A145C C169A U176C,0.00859
14,C82A A111C A120C A145C C169A U176G,0.00646
15,C82A A111C A120C A145C C169G,0.00972
16,C82A A111C A120C A145C C169G U176A,0.0258
17,C82A A111C A120C A145C C169G U176C,0.0213
18,C82A A111C A120C A145C C169G U176G,0.0074
19,C82A A111C A120C A145C C169U,0.0116
20,C82A A111C A120C A145C C169U U176A,0.0123
21,C82A A111C A120C A145C C169U U176C,0.0141

row,Variant,reverse-splicing fitness
1,C82A A111C A120C A145C C169U U176G,0.00595
2,C82A A111C A120C A145C U176A,0.0123
3,C82A A111C A120C A145C U176C,0.0149
4,C82A A111C A120C A145C U176G,0.00663
5,C82A A111C A120C A145G,0.0258
6,C82A A111C A120C A145G C150A,0.0108
7,C82A A111C A120C A145G C150A C169A,0.0106
8,C82A A111C A120C A145G C150A C169A U176A,0.0209
9,C82A A111C A120C A145G C150A C169A U176C,0.019
10,C82A A111C A120C A145G C150A C169A U176G,0.009
11,C82A A111C A120C A145G C150A C169G,0.00833
12,C82A A111C A120C A145G C150A C169G U176A,0.0172
13,C82A A111C A120C A145G C150A C169G U176C,0.0238
14,C82A A111C A120C A145G C150A C169G U176G,0.00821
15,C82A A111C A120C A145G C150A C169U,0.00994
16,C82A A111C A120C A145G C150A C169U U176A,0.0154
17,C82A A111C A120C A145G C150A C169U U176C,0.0136
18,C82A A111C A120C A145G C150A C169U U176G,0.00795
19,C82A A111C A120C A145G C150A U176A,0.00956
20,C82A A111C A120C A145G C150A U176C,0.0232
